# Patent US20260008815A1, “CYCLIC PEPTIDE OR SALT THEREOF, AND USES THEREOF” (FUJIFILM Corporation, priority 2023, published 2026)
# Bridge positions count the residues as written; N and C are the ends. Ends that are not written are not given here. COCH2 = acetyl group that carries the bridge
# B1: cyclic peptide SEQ ID NO: 428 (peptide)
# peptide: ECDQAQQVYALIYRYLYQLQK(COCH2)V
# modifications: thioether 2-21 (inferred)
# B2: cyclic peptide SEQ ID NO: 423 (peptide)
# peptide: WCFTEGIQSTVQLTYSYLYK(COCH2)L
# modifications: thioether 2-20 (inferred)
# B3: cyclic peptide SEQ ID NO: 418 (peptide)
# peptide: DCLRQQVYQYLYILFQNDIAK(COCH2)D
# modifications: thioether 2-21 (inferred)
# B4: cyclic peptide SEQ ID NO: 427 (peptide)
# peptide: ECDTADYPQEWIQDVYQYLYK(COCH2)R
# modifications: thioether 2-21 (inferred)
# B5: cyclic peptide SEQ ID NO: 429 (peptide)
# peptide: YCHENYLDPEQYQYFHYFK(COCH2)
# modifications: thioether 2-19 (inferred)
# B6: cyclic peptide SEQ ID NO: 432 (peptide)
# peptide: CENYLDPEQYQYFHYFK(COCH2)Y
# modifications: thioether 1-17 (inferred)
# B7: cyclic peptide SEQ ID NO: 111 (peptide)
# peptide: QCDQEFYLALYAWTLRSYK(COCH2)L
# modifications: thioether 2-19
# B8: cyclic peptide SEQ ID NO: 122 (peptide)
# peptide: QCENWVNSTQFEFFWQYK(COCH2)T
# modifications: thioether 2-18
# B9: cyclic peptide SEQ ID NO: 124 (peptide)
# peptide: DCRDLQLFYIYQYLDALKK
# modifications: not fully specified; thioether ring (C)-(K(acetyl))
# B10: cyclic peptide SEQ ID NO: 42 (peptide)
# peptide: QCYFLSQYILERYKVHK(COCH2)L
# modifications: thioether 2-17
# B11: cyclic peptide SEQ ID NO: 430 (peptide)
# peptide: CHENYLDPEQYQYFHYFK(COCH2)Y
# modifications: thioether 1-18 (inferred)
# B12: cyclic peptide SEQ ID NO: 41 (peptide)
# peptide: LCGNYITPLQWKYFQTYK(COCH2)W
# modifications: thioether 2-18
# B13: cyclic peptide SEQ ID NO: 115 (peptide)
# peptide: NCPNYWSQIQWHYFQAYK(COCH2)Q
# modifications: thioether 2-18
# B14: cyclic peptide SEQ ID NO: 37 (peptide)
# peptide: QCQLNYWDDLQFTYYLQYK(COCH2)V
# modifications: thioether 2-19
# B15: cyclic peptide SEQ ID NO: 426 (peptide)
# peptide: PCDPLNLQQWYTAVYQLWHK(COCH2)R
# modifications: thioether 2-20 (inferred)
# B16: cyclic peptide SEQ ID NO: 422 (peptide)
# peptide: YCTQEQAFRQLAYYQIFRRSK(COCH2)S
# modifications: thioether 2-21 (inferred)
# B17: cyclic peptide SEQ ID NO: 113 (peptide)
# peptide: RCINYWSGQQFYFFQQYK(COCH2)F
# modifications: thioether 2-18
# B18: cyclic peptide SEQ ID NO: 108 (peptide)
# peptide: LCRNYINPQQWRYFALYK(COCH2)Y
# modifications: thioether 2-18
# B19: cyclic peptide SEQ ID NO: 117 (peptide)
# peptide: LCRNYINPQQWRYFALYK(COCH2)N
# modifications: thioether 2-18
# B20: cyclic peptide SEQ ID NO: 123 (peptide)
# peptide: QCQNFITEVQFTYFWHYK(COCH2)T
# modifications: thioether 2-18
# B21: cyclic peptide SEQ ID NO: 38 (peptide)
# peptide: QCSYLYQYVFERYKVTVPK(COCH2)D
# modifications: thioether 2-19; not fully specified; printed as Q-(C)-SYLYQYVFERYKVTVP-(K(acetyl))-D
# B22: cyclic peptide SEQ ID NO: 417 (peptide)
# peptide: LCQIYLYLTALQQGFEDFYPK(COCH2)N
# modifications: thioether 2-21 (inferred)
# B23: cyclic peptide SEQ ID NO: 39 (peptide)
# peptide: QCENWLSQDQWKYFWQYK(COCH2)I
# modifications: thioether 2-18; not fully specified; printed as Q-(C)-ENWLSQDQWKYFWQY-(K(acetyl))-I
# B24: cyclic peptide SEQ ID NO: 112 (peptide)
# peptide: HCQPEYELYYIYLYLNALK(COCH2)I
# modifications: thioether 2-19
# B25: cyclic peptide SEQ ID NO: 425 (peptide)
# peptide: GCGYTQLHYQHLFAWLHARK(COCH2)V
# modifications: thioether 2-20 (inferred)
# B26: cyclic peptide SEQ ID NO: 415 (peptide)
# peptide: YCDWVEVANARQLAYYTLYRK(COCH2)K
# modifications: thioether 2-21
# B27: cyclic peptide SEQ ID NO: 109 (peptide)
# peptide: DCFINELQYFYIQQYKK
# modifications: not fully specified; thioether ring (C)-(K(acetyl))
# B28: cyclic peptide SEQ ID NO: 116 (peptide)
# peptide: QCYQNWYLYQYLVERYYK(COCH2)D
# modifications: thioether 2-18
# B29: cyclic peptide SEQ ID NO: 421 (peptide)
# peptide: VCLDEQQALFHQYYRITRRK(COCH2)V
# modifications: thioether 2-20 (inferred)
# B30: cyclic peptide SEQ ID NO: 419 (peptide)
# peptide: DCHTREDWQIHHLYQLLYQLK(COCH2)Y
# modifications: thioether 2-21 (inferred)
# B31: cyclic peptide SEQ ID NO: 110 (peptide)
# peptide: QCQTDHQQQLYFIYQYLQK(COCH2)I
# modifications: thioether 2-19
# B32: cyclic peptide SEQ ID NO: 424 (peptide)
# peptide: VCTQPQQDFELIYQYLYQLAK(COCH2)Q
# modifications: thioether 2-21 (inferred)
# B33: cyclic peptide SEQ ID NO: 119 (peptide)
# peptide: QCRYFWQYVLERYRVRLPK(COCH2)E
# modifications: thioether 2-19
# B34: cyclic peptide SEQ ID NO: 420 (peptide)
# peptide: YCEAQPYYFQLYRLWHRQEK(COCH2)P
# modifications: thioether 2-20 (inferred)
# B35: cyclic peptide SEQ ID NO: 414 (peptide)
# peptide: YCNYEWDGARRQIAYYRIFLK(COCH2)L
# modifications: thioether 2-21 (inferred)
# B36: cyclic peptide SEQ ID NO: 40 (peptide)
# peptide: DCSGNFFSKEQFHYLELFK(COCH2)K
# modifications: thioether 2-19; not fully specified; printed as D-(C)-SGNFFSKEQFHYLELF-(K(acetyl))-K
# B37: cyclic peptide SEQ ID NO: 416 (peptide)
# peptide: LCTQFPASQRYYFALYRLWHK(COCH2)S
# modifications: thioether 2-21 (inferred)
# B38: cyclic peptide SEQ ID NO: 118 (peptide)
# peptide: LCPVPQQTDYLRWYQIIHK(COCH2)Q
# modifications: thioether 2-19
# B39: cyclic peptide SEQ ID NO: 120 (peptide)
# peptide: QCWYIQQYIWERYFLWHNK(COCH2)E
# modifications: thioether 2-19
# B40: cyclic peptide SEQ ID NO: 107 (peptide)
# peptide: YCTDNYIDDIQFWYLFLYK(COCH2)Q
# modifications: thioether 2-19
# B41: cyclic peptide SEQ ID NO: 114 (peptide)
# peptide: YCTDNYIDDIQFWYLFLYK(COCH2)H
# modifications: thioether 2-19
# B42: cyclic peptide SEQ ID NO: 121 (peptide)
# peptide: DCYWDDQQYSFLQLYK(COCH2)R
# modifications: thioether 2-16
# B43: cyclic peptide SEQ ID NO: 431 (peptide)
# peptide: CHENYLDPEQYQYFHYFK(COCH2)
# modifications: thioether 1-18 (inferred)
# Biological target: T1, Recombinant Human FGFR2 alpha (IIIc) Fc Chimera Protein, CF (R&D systems, 712-FR-050) (human, UniProt P21802 22-377)
# T1 construct: bought; not shown: Fc part of the chimera
# T1 sequence (P21802 22-377, change not shown): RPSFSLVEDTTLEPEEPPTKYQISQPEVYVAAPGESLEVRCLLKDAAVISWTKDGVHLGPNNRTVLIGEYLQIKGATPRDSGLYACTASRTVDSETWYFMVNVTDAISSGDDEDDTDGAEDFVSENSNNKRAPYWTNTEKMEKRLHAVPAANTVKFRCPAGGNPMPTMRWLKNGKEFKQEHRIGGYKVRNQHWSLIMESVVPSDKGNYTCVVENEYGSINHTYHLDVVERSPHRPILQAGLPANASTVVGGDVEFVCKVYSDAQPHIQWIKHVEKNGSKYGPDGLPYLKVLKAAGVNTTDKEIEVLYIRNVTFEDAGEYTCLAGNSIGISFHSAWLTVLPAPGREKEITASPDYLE
# Assay: ELISA on plate-bound FGFR2-Fc
# Summary of the method: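 Plate-immobilized FGFR2 alpha (IIIc)-Fc (5 ng/well) incubated with peptide 3 h at room temperature, then anti-Myc antibody 2 h and chemiluminescent ELISA substrate. Signal corrected by subtracting FGFR-free wells; binding affinity scored into categories from the dose-response.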
row,Binder,"ELISA luminescence signal at 10 nmol/L peptide, relative to SEQ ID NO: 47 (=1)"
1,B1,0.1 to 0.5 ratio
2,B2,0.1 to 0.5 ratio
3,B3,0.1 to 0.5 ratio
4,B4,0.1 to 0.5 ratio
5,B5,0.1 to 0.5 ratio
6,B6,0.1 to 0.5 ratio
7,B7,0.1 to 0.5 ratio
8,B8,0.5 to 0.7 ratio
9,B9,0.1 to 0.5 ratio
10,B10,≥ 0.7 ratio
11,B11,≥ 0.7 ratio
12,B12,≥ 0.7 ratio
13,B13,≥ 0.7 ratio
14,B14,≥ 0.7 ratio
15,B15,0.1 to 0.5 ratio
16,B16,0.1 to 0.5 ratio
17,B17,0.1 to 0.5 ratio
18,B18,≥ 0.7 ratio
19,B19,≥ 0.7 ratio
20,B20,≥ 0.7 ratio
21,B21,≥ 0.7 ratio
22,B22,0.1 to 0.5 ratio

row,Binder,"ELISA luminescence signal at 10 nmol/L peptide, relative to SEQ ID NO: 47 (=1)"
1,B23,≥ 0.7 ratio
2,B24,0.1 to 0.5 ratio
3,B25,0.1 to 0.5 ratio
4,B26,0.1 to 0.5 ratio
5,B27,0.5 to 0.7 ratio
6,B28,0.1 to 0.5 ratio
7,B29,0.1 to 0.5 ratio
8,B30,0.1 to 0.5 ratio
9,B31,0.1 to 0.5 ratio
10,B32,0.1 to 0.5 ratio
11,B33,≥ 0.7 ratio
12,B34,0.1 to 0.5 ratio
13,B35,0.1 to 0.5 ratio
14,B36,≥ 0.7 ratio
15,B37,0.1 to 0.5 ratio
16,B38,0.1 to 0.5 ratio
17,B39,0.1 to 0.5 ratio
18,B40,0.5 to 0.7 ratio
19,B41,≥ 0.7 ratio
20,B42,≥ 0.7 ratio
21,B43,0.1 to 0.5 ratio
